Assay results as given in the supplement of paper PMC12042874.
± gives the uncertainty stated by the source.

Experiment: amyloid nucleation score (Sup35N fusion, yeast selection) (log enrichment); library NNK1; higher = more nucleation; inactive = no reads after selection
Summary of the method: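 Yeast lacking psi expressed peptides of 20 random codons fused to Sup35N, received 100 μM copper sulfate for 24 hours, and were then grown for 7 days at 30°C on medium lacking adenine and uracil. Illumina sequencing of input and output plasmid inserts provided the reads. Nucleation scores are DiMSum log enrichments of output over input, centred on the mode of non-aggregating sequences. Any sequence with under 100 input reads was excluded.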

Row | Substance | amyloid nucleation score
1 | SVFGWR | 1.32 ± 0.81
2 | SVFWDLTSDWAKIGVKK | -1.03 ± 0.89
3 | SVGEDSSFRRDSKINEGDCD | 0.968 ± 0.85
4 | SVIRVLWKGYGTRN | -1.55 ± 1.4
5 | SVLIVLMHGMGYQQKTYCRF | 0.316 ± 0.48
6 | SVLLEGFLSYPDLSTNLIHV | -0.416 ± 0.81
7 | SVLLKWMSYTKH | 2.66 ± 0.15
8 | SVLLRFYFTRNCGFFGRSTV | 0.7 ± 0.97
9 | SVLNSDCNCGIKSWFTDIIM | 1.96 ± 0.4
10 | SVLVLSRYFWNKLMRRWLVA | -0.002 ± 1.2
11 | SVLWRGIFCFWIAWFV | -1.39 ± 2.4
12 | SVNAYTSRTGRWMVMNSLVS | -0.186 ± 1.9
13 | SVNHCHCL | 0.597 ± 0.3
14 | SVPSVDAIMVGTWCYRCW | -0.28 ± 0.68
15 | SVRFSIETISWRGAYNRGTR | 1.98 ± 0.22
16 | SVSACPRVPMCIYGYLCWCH | -0.311 ± 0.3
17 | SVTALKLDSSLQKSRDLVGG | -0.233 ± 1.1
18 | SVWCSFFVNAADHNIYRTIT | 1.11 ± 0.15
19 | SWAIRALKFVWIA | -0.323 ± 0.93
20 | SWFHGLEGVLSHATMSLGFA | 0.1 ± 0.48
21 | SWFYDGCSRPWRGIGDRRVC | -0.812 ± 0.91
22 | SWGQTLTMNNP | -0.273 ± 0.38
23 | SWISCASGFFYFWAIF | -0.739 ± 0.77
24 | SWKPVLSREDFWTNHKGRPM | 0.565 ± 0.45
25 | SWLWSCSCLRVAMLTT | inactive

Row | Substance | amyloid nucleation score
26 | SWNMSFVWFHGCITWRQKGF | 0.408 ± 0.4
27 | SYAIPMVAIFQVEGHLGHPG | -0.211 ± 1.2
28 | SYCMLNAVPVEMRLTLPGIR | 0.389 ± 0.49
29 | SYDNLRSRREGPEVVGRRAP | 0.569 ± 0.74
30 | SYEMWLEHYMRRQQRRP | -0.282 ± 1.7
31 | SYGNVWYIMYHRLKDTGWYM | 1.4 ± 0.43
32 | SYHRSSYYGLVNRMAFLVF | 2.94 ± 0.11
33 | SYIALIELFLFDSRRGHESV | 0.078 ± 0.35
34 | SYIPSISAALYFVLVMRHWL | -0.627 ± 0.49
35 | SYIQLMSMMIFAHMTANRRN | 1.9 ± 0.42
36 | SYLDLRLAVCHCNGA | 5.38 ± 0.055
37 | SYLFRSRRIRYFRFMHN | 3.17 ± 0.12
38 | SYLTWDHLEVNLCTYSILGR | 0.45 ± 0.52
39 | SYNGCRRFNRCDRVCRNSNT | 2.35 ± 0.095
40 | SYQCGENYMFAYVNWSVGGN | 0.548 ± 0.84
41 | SYRGWADADNLVLYPQNASV | 0.021 ± 0.97
42 | SYSIASVFWSSMSNGLGR | 0.886 ± 0.2
43 | SYSINLPLLPRCN | 1.02 ± 0.57
44 | SYSMQRRKCTPAFCFA | -0.36 ± 0.54
45 | SYWLWTVNTMSLVPFRASCR | 1.05 ± 0.36
46 | TAGATI | 0.108 ± 0.25
47 | TAIRWHFGNFVIDNIRNRGI | 1.25 ± 0.19
48 | TALSFRYVYLI | -0.612 ± 0.61
49 | TASIWNSRFFHNAGSLSGPF | -0.3 ± 1.1
50 | TAWGHV | 0.411 ± 0.73

Row | Substance | amyloid nucleation score
51 | TCAGDNHDCDIYRNLLVAFS | 1.19 ± 0.68
52 | TCCDRSRCSESSEGRRFQRT | 0.162 ± 0.3
53 | TCLKFDSPMNCKGLSSLDMM | -0.496 ± 0.38
54 | TCNGCGGHRMFWYK | 0.099 ± 0.55
55 | TCNQS | inactive
56 | TCWHVSILN | 0.136 ± 0.24
57 | TDGIGYLGTWMWLWRGDGVR | 1.78 ± 0.53
58 | TDRTQTYSTFASRGSDVTVT | 0.185 ± 0.35
59 | TEALYWRLYMGQNKILSCRG | 0.366 ± 0.61
60 | TEFHAKGPTWCELSYSFAIL | -0.195 ± 0.58
61 | TEINIASPYWNNSRSGSDMD | 0.238 ± 0.42
62 | TFIITSRFLYSDVAT | -1.33 ± 0.45
63 | TFIMSQSWFMQWPRTMAAMT | -0.346 ± 0.45
64 | TFLGGAPVGKIFTLIWLGRG | 0.52 ± 0.93
65 | TFLITRMCYSTVQKKEVVFW | -0.189 ± 1.2
66 | TFLSL | 0.068 ± 0.24
67 | TFRCKSCDLLYHRLENWSDW | 2.66 ± 0.12
68 | TFSDSLKNLQVMVHYSWVVG | 0.224 ± 1.4
69 | TFSEFAVIDIRYIWGTLFVS | 0.762 ± 0.38
70 | TFTFNACELCVPGLMCKEWN | 3.94 ± 0.096
71 | TFVCAFRGY | 2.19 ± 0.098
72 | TFYLEYLVLFGDCDADSFSW | -0.361 ± 0.63
73 | TGATFMMRGVNLCEGSKSGN | -0.198 ± 0.5
74 | TGDIISRSLSASIEQNFSSN | 0.443 ± 0.2
75 | TGFTSLGGYLKVFNIICWIH | 3.39 ± 0.097

Row | Substance | amyloid nucleation score
76 | TGFVWWLFGCGWTLVDRMWF | -0.79 ± 0.69
77 | TGICLWLPAVVDAEES | -0.34 ± 0.35
78 | TGKGSSEHLRSNMNHRLYCA | 0.85 ± 0.43
79 | TGLDNHNICNRDTR | -0.034 ± 0.62
80 | TGLWPMEYSCQCDVVYPVSY | -0.051 ± 0.76
81 | TGRSTSTG | inactive
82 | TGWQCYSRANVVD | -0.98 ± 0.51
83 | THFRMGKSFVICLGLASYPL | 0.374 ± 0.9
84 | THGGCCQGFQPTQLQSLTHQ | 0.367 ± 0.6
85 | THHSTSVSGVDQW | 0.289 ± 0.52
86 | THNFEGLSVWDLKDLKCCS | 5.16 ± 0.087
87 | THSIFFVQLRFPFMLTTS | -0.269 ± 0.78
88 | TIAKST | -0.885 ± 0.86
89 | TIDERDSAHKSSVFKGLKEI | -0.447 ± 0.33
90 | TIIFYVFQCSMLRFIQMV | inactive
91 | TIILSRLVEGVMQWAFMRAF | inactive
92 | TINDKMITRFSLLCPAVSMI | 1.21 ± 0.84
93 | TISCSSYDMWWCFTEAKSTM | inactive
94 | TKCGMGYISGISSPASGQYG | 0.767 ± 1
95 | TKFKIAYTCYFNMFHRRLCI | -0.374 ± 0.38
96 | TKLSPFNIGLRCRYHNLALN | -1.52 ± 0.45
97 | TKNSRTRLASSSLIWNW | -1.45 ± 0.76
98 | TKSMEPSGR | 0.046 ± 0.52
99 | TKTLL | 0.346 ± 0.34
100 | TKVKCSLLSFWEKKFLLLRL | 1.82 ± 0.34

Row | Substance | amyloid nucleation score
101 | TLAIESGRFWINRLWYVEGE | -1.55 ± 1.3
102 | TLCERGPPMMYCKC | -0.526 ± 0.45
103 | TLFLLVSNVIAEFLFWIVCP | 0.212 ± 0.3
104 | TLGFKIVDGIRGNMLVGPGI | -0.081 ± 0.73
105 | TLILVTLMASIRNDTRTSWS | 0.979 ± 0.54
106 | TLIRGIIISRWRRVRNIDE | -0.216 ± 0.3
107 | TLLYICSRNTKFNGLMWLGL | 0.935 ± 0.21
108 | TLMDQSLYIWGSN | -0.274 ± 0.63
109 | TLNDYYCFMLCGAVNG | 0.071 ± 0.63
110 | TLNLWSAWLLFPYDLAGIFY | -0.199 ± 0.33
111 | TLQLCLSSCWYKGRRVGLEC | 0.483 ± 0.3
112 | TLQLICYY | 3.29 ± 0.14
113 | TLRLKWSWEADCDI | 2.49 ± 0.12
114 | TLRWGNYKLLQIVYITVWRD | 0.541 ± 0.28
115 | TLSFIRAYSVPHQVLRMESL | 0.87 ± 0.64
116 | TLSLNGLNP | inactive
117 | TLSLNYRFNLKERFLVSGLI | -0.733 ± 0.38
118 | TLTPTILILFNFIT | 4.68 ± 0.052
119 | TLTVSGAADIITFGSTIVVG | 0.193 ± 1.5
120 | TLVKLVVTIGLDIKDCGFVI | 0.018 ± 0.18
121 | TLVYY | 0.296 ± 0.47
122 | TLWTWTSYRVVLYSSSVKLG | -0.451 ± 0.32
123 | TLYLPGLKPTRHECMDLHQG | inactive
124 | TMRLNQCPLNSFPTLFLYER | -0.602 ± 0.31
125 | TMVFCRI | 0.23 ± 0.79

Row | Substance | amyloid nucleation score
126 | TMYTVVPNHWNNISFRALSR | -0.909 ± 0.74
127 | TNCGITFVFTPIPRATTWSN | 5.37 ± 0.083
128 | TNELCMYCLGHLGY | 0.694 ± 0.84
129 | TNFANHRLGDPIMYSFHKGV | -0.74 ± 0.37
130 | TNGWTQHKYKYRSFSGHFII | inactive
131 | TNHDMAINLVQQLDC | 1.67 ± 0.61
132 | TNIFMSFKFLISSLRCFPER | 4.68 ± 0.12
133 | TNILVAYRVISNGSTTPPRR | 3.56 ± 0.15
134 | TNRKIQSLPTVCVCIRGSSG | 2.95 ± 0.11
135 | TNSKSSSVGSKATQHN | 0.077 ± 0.35
136 | TNTLLTPGCGINAIGVALYV | -0.628 ± 0.3
137 | TNTSHVLTLESCSCRERVSR | 0.969 ± 0.55
138 | TPDHLWLWLFYLNCNTENYG | 7.757 ± 0.046
139 | TPSLAEADCL | -0.909 ± 2.7
140 | TQCCGS | -0.448 ± 1.7
141 | TQCSFAANQF | 0.768 ± 0.39
142 | TQRVIGERRMNADCRACRLR | -0.061 ± 1.6
143 | TRCPV | 0.253 ± 0.66
144 | TRHWVIRQVSSTRDKYTKHA | 0.217 ± 0.66
145 | TRLLRVGRSNFSLNEHSDRI | -0.376 ± 0.9
146 | TRLRTYKCLQMGDYHVSSFK | 0.672 ± 0.79
147 | TRNSDNVWKFEGVFHNLETW | 0.43 ± 0.48
148 | TRNVQHRIRSKSTISDKQIF | inactive
149 | TRSGYAHARSSAAQSFTL | 0.622 ± 0.33
150 | TRTKSGFSLYVRR | 1.1 ± 0.71

Row | Substance | amyloid nucleation score
151 | TRVSFYRSKFAFMFYYHVMV | 0.099 ± 0.79
152 | TRWLILWNLAGPTGCYFRIL | 0.063 ± 0.63
153 | TSAGKYHSSIILLYLWDYVT | 0.845 ± 0.41
154 | TSALWEVLW | 0.191 ± 0.58
155 | TSASYRADVWDDGNVLYRLW | inactive
156 | TSDNGKNAQGWGM | 0.145 ± 1
157 | TSELNSYSTCFHSDGLSMNR | inactive
158 | TSGIYRRSDFLERHIS | 0.993 ± 0.71
159 | TSLCCSYWFSSVIGFSGYCG | 1.89 ± 0.28
160 | TSLYQAYSIYSFRYYIAYMC | 0.232 ± 0.68
161 | TSPPSKIAVRCGWDSMSLR | 0.309 ± 0.6
162 | TSRRAEYRWSYQEKSGSSRS | 1.26 ± 0.45
163 | TSSRCRYMFFLRHIFCKILK | inactive
164 | TSSSRSIDR | 0.16 ± 0.35
165 | TSVHDRQELRDRLV | 0.69 ± 0.32
166 | TTKAVRCYRNIMCSTILGRS | -0.015 ± 0.31
167 | TTNMRLFLLYNTTLVMSFNV | 1.88 ± 0.16
168 | TTRMRRRY | 1.89 ± 0.56
169 | TTRSSGIFSDEGKQACSDRG | 0.091 ± 0.74
